# Legend:
# [1] = target: Neutravidin (UltraLink neutravidin beads, Pierce; neutravidin protein) (UniProt P02701); test: ELIFA; binding of the biotinylated protein to Ultralink Neutravidin beads (through biotin)
# [2] = target: Neutravidin (UltraLink neutravidin beads, Pierce; neutravidin protein) (UniProt P02701); test: Western blot (streptavidin-HRP) of sample and supernatant after binding to Neutravidin beads
# Chain of UniProt P02701 (P02701 25-152): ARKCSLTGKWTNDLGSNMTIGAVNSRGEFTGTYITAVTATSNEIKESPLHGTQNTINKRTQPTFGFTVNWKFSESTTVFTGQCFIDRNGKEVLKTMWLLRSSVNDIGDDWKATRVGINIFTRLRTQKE
Substance,Binding [%] [1] [%],percent bound to the beads [2] [%]
"E24-tagged CDKN1b (AviTag-TEV cleavage site-His6-PrC-CDKN1b), biotinylated (from UniProt P46527 1-198)",100,> 80
"E24-tagged Grb2 (AviTag-TEV cleavage site-His6-PrC-Grb2), biotinylated (from UniProt P62993 1-217)",100,> 80
"E24-tagged NAPA (AviTag-TEV cleavage site-His6-PrC-NAPA), biotinylated (from UniProt P54920 1-295)",100,> 80
"E25-tagged CDKN1b (AviTag-(G4S)2-TEV cleavage site-His6-PrC-CDKN1b), biotinylated (from UniProt P46527 1-198)",100,> 80
"E25-tagged Grb2 (AviTag-(G4S)2-TEV cleavage site-His6-PrC-Grb2), biotinylated (from UniProt P62993 1-217)",100,> 80
"E25-tagged NAPA (AviTag-(G4S)2-TEV cleavage site-His6-PrC-NAPA), biotinylated (from UniProt P54920 1-295)",100,> 80
